assay: soluble fraction after stress (log2 fold change); higher = more stays soluble; pooled small domains, quantitative proteomics; details: stress: pH 4
In short: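 Values are on a log2 scale, where higher means more of the domain stayed soluble after pH 4 stress. They are fold changes in the soluble amount of each domain from pooled custom libraries, measured by high-throughput quantitative proteomics. The fold change is taken to reflect aggregation propensity.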

Going from “HMGTNTTGWIKIADDWKYIDSNGEYTVNDWRQSADGGWYYLGYNGNMLKNQTTPDGYYVDAEGLWDGMSPA” to “HMGTPEQVVVSSVLKETNEIVLKWPADGFMAKYKMDNLNLNFEPVHGQGVMGYFIGSRLIKLELV”, the “soluble fraction (log2)” value rises from -2.31 to -0.33.

First: HMGTPSAEELAFSAQKGNAVMRIMEIREKYIENGGQISDEERNEIERLIAIYYPKASIFDYLPMMG
Second: HMGTSFEDIDRAVKSVRKPETDEAEKLHAGKTFKDIAETELFQKLTESFAGISDRVNEVIDLYTARAAE
The “soluble fraction (log2)” value of the first is lower: -1.42 for the first, 0.143 for the second.

Compared with “HMGTSSAEIAAELRAQIFAGELRPGEMLPSAREITGTWNVAIATASRVHALLRSEGLATPVPGVGTVVAT”, “HMGTTAWISTKTANGSVNIRTGPGTGYGVIGWALNGDKLEVLSRGTSWHYVKLVKNGKIGYVSASYVSFTQ” is lower in “soluble fraction (log2)” value: -0.17 for the first, -0.399 for the second.

“HMGTTKGVVDVTVPNGRASQHVKLVVIDDDGGRVVYDGTNAPGDRIVKSVSGSGNVRVQIYLNNALVQEQS” and “HMGTTMLEVPNFVGEVFKEIDPEKYPNLRLVDSDYTYSNEYEAGKVISQDPVARTQVAEGSTVKLVIS” are within 0.2 log units of each other in “soluble fraction (log2)” value: -0.306 for the first, -0.249 for the second.

“HMGTVISVDKARSIALAKVPGASANDIRIHLDRDDGRQIYEGEIYYNRMEYEFEIDASTGTIIEWSAEHW” and “HMGTVQSVDRALLLLSEIGREPGGLVDLSTRVRLATSTTGRILATLEHAGAVVRGDDGIYHIGPLVHGMVS” are within 0.2 log units of each other in “soluble fraction (log2)” value: 0.00283 for the first, 0.0724 for the second.

Compared with “HMGTYSKQDLLQLIGRYPDGIGKREINLAFSKGTKIRNLLNIELNELLNERLITLSQGGLYIKP”, “HMGVAFAPVEKIKHTKTGNELYAVKLAGRVEAEVFGQLRQKAKEYDGYYSKFSRAFLFSTPEDAEAFRAE” is lower in “soluble fraction (log2)” value: ≥ 0.43 for the first, 0.276 for the second.

Compared with “HMGVDIAEHDGQPAVSIRKGAAESVAQWVKDQGGTFPQEVEMTVQNVARAGGTPLVVARGRDVLGVIYLKD”, “HMGVDKLTPREREVLALMAQGASNREIEGKLVLTAGAVSKHVANVFMKLGFSPEDENRRVKAVLAWLRTK” is higher in “soluble fraction (log2)” value: -0.281 for the first, 0.225 for the second.

First: HMGVGIEALAVEVDRIRQVLTGGGALSDIQLFSQLKALGEVKTALSSMTDPRARELEKRVAQLLEASLRT
Second: HMGVKHKHKGAGELLAALRTMFPNSSVSTLRKMLTQGRVVLNGEVVHRAKHELTDGDTIEVLERQRAER
The “soluble fraction (log2)” value of the first is lower: -0.323 for the first, 0.228 for the second.

Compared with “HMGVKIELNENEQAIFAAMQKQVEAVLPDLRAQFADMSNKAWDNSVKTLTKNNLLKVSKEAEILFIRL”, “HMGVKTDKYYYQMATETRVNKHYGLSNQYIATLISEYPRSPLIPNASILSKKNNADLALIDQSINQR” is higher in “soluble fraction (log2)” value: -1.09 for the first, 0.155 for the second.

“HMGVLSPRQSQILALVAQGLGNREIAERLHIAPTTARDHVQAIMRRLNVNSRAAAAVMGVKLGLI” and “HMGVNEGVNKLFKTIQETPGKRMPYYALATDVPEKTIERWLKQLREEGKIEFKGSAKTGGYFVIDK” are within 0.2 log units of each other in “soluble fraction (log2)” value: 0.085 for the first, 0.22 for the second.

“HMGVRDIRIFERNNSFFVNAEIRGEAQLSVPITRTDYQLFKENKIDALSLVEKYYAEELNASNEMK” and “HMGVSLNELAYRRFKQALVTLSYKPGEYLNTAQVMNDLDMGRTPINQAIHRLANEGLLQVIPRKGVMVS” are within 0.2 log units of each other in “soluble fraction (log2)” value: 0.155 for the first, 0.026 for the second.

First: HMGVTDLFAVLGFPRSPWLDAEELKQRHHALMADEASANSSPTILNEARRTLQNPALRIRHFLALEFPDH
Second: HMGVYDLIYLGYGINVEKEELVDQNISIIRRYANIFDPNGDIKGSTNPTYASNTAVLFNEAKFIIDGYD
The “soluble fraction (log2)” value of the first is higher: -0.82 for the first, -1.79 for the second.

First: HMGWQPDPLTTRERLVAELATQASNAQIAEQLHLSVRTVEGHLAHVYTKLGITTRRELPAALAGAR
Second: HMGWTTPAGIAVGMDKSVLQDAYGKEDDTFQDKGILYYQYFVHPSRMSGLSFGIKNDKIVSITAYMD
The “soluble fraction (log2)” value of the first is higher: -2.8e-05 for the first, -1.23 for the second.

Going from “HMGYDDLEPFDANGRLRWSDQELVLAFGRHRGATLRTLELNDPSYLRWLLSGNGPLEQQDIQRLEQILES” to “HMGYDLLFQQALGFHEQGRLNEAENIYRQILETAPNNPDILNLLGLIAQQKGLHAQAVDYFYQAIRL”, the “soluble fraction (log2)” value falls from -1.44 to -1.9.

“HMGYDVAEVKFRLIKLLRDSKIGISGVEISERLGINRVTMTKYLNIFSAEGVIGEKNIGNVNLWFVYEGIE” and “HMGYQLSLEAQSQLKALGLTSEYITRILDEADNRQPIPGTSRTVYSLNGYQVEFSHSDQQVIRIARG” are within 0.2 log units of each other in “soluble fraction (log2)” value: -0.186 for the first, -0.262 for the second.

“HMGYSDEIGEFIKKLRTENHLTQKEFADKYGVTYQAVSKWENGKNLPDMSLIKQMSEDFNIGIDELLDGEK” and “HMGYTLDVAHGVTEDMNFSEAFATAREEVGPGGIFYWHGKPYGTYYENEWNAMDEEDKAEYWDAVGRTTA” are within 0.2 log units of each other in “soluble fraction (log2)” value: -0.454 for the first, -0.508 for the second.

Going from “HMHANSDVEQLMQMGIQRLNFQRYSDALLIFNQIIENFPDYAEAWNKRATLHYLLGNLDKSIADIEQTLE” to “HMHAPIAELKKVFKEEFADQEVTVRQLAGSVLLSGNVKTAELRENLESVAKQFFPRVINNLKLI”, the “soluble fraction (log2)” value rises from -1.54 to 0.0685.

First: HMHDAKAEIIRLSALLTEYQRSYYIDGHSQVSDLEYDRLFDRLVALETSHPELREADSPTQRV
Second: HMHDAKTQLQEEAARRGLPAPVYTRIGQEGPDHAPRFRVRADVGPHQAEAVAGSLKLAQAEAARAILRQMP
The “soluble fraction (log2)” value of the first is lower: -1.14 for the first, 0.28 for the second.

Going from “HMHDITPAVAETFKQLRAERGLSLSQAAQLTGVSKAMLGQIERGQSSPTVSTLWKIATGFNVAFSVFL” to “HMHDLGEQIIEKLRASGGISTLTDKSDPDAIYRQFKVSKKKYKQALGTLYKSRRITLAPNQIKLA”, the “soluble fraction (log2)” value rises from -0.309 to 0.22.

First: HMHDPLATLTPREHEVMSLMAEGRTNAAIAQALVIGTGAVEKNVTSIFQKLGLDDSGTDHRRVLAVLAWLQ
Second: HMHDRRSGKVKWYSDRKGYGFIDLDGGEVFIHRSALIAFGALRLQAEDIITITVRETDRGLVVDQLFGIER
The “soluble fraction (log2)” value of the first is higher: -1.18 for the first, -1.63 for the second.

First: HMHEAILNQIRNEELMLYIGELSDAQQDVILLKYFHQMTFKEIAESFSIPISTVKTRHTAALKKLSTLWK
Second: HMHESLAEVAARKLRALIVTGELAPGERVTEAGLTDLLEISRTPAREAIRILSSEGLLVVFPNRGAEVV
The “soluble fraction (log2)” value of the first is higher: 0.0907 for the first, -0.815 for the second.

Compared with “HMHEYSDIEHRILDAAREVFIRKGYDSATMGDIALLAGMSRTSVNYYFRNKERLFEAIFEEII”, “HMHFDQILAHAMDERGMNAVQLASLTGLSSGAISRYLAGDRQPTVYSIQQIAKALGVSADYLVG” is higher in “soluble fraction (log2)” value: -1.25 for the first, 0.22 for the second.

Going from “HMHGEAEFLDATAVVMEKLNPGGLVKIKGEIWQAVSKDGHTIQEGEKVRVFERQGITLLVGHF” to “HMHGTIHSAAYGGDIEAVKKFLAAGADVNANGGGRTPLDLAIQVKNTEIADLLRKHGGKTGDELKA”, the “soluble fraction (log2)” value rises from -0.223 to 0.398.

“HMHGYLSDPAARLIRARRKTLSIRITQEGNLEIRAPLGMPKGEIEAFLKEKAQWIETHRAKVLAEYA” and “HMHHDQQQITAELARIARNGLPGLTADNAIISRLDALNLLINIHDDRGADATPLRGLLPAIADELLRLT” are within 0.2 log units of each other in “soluble fraction (log2)” value: -0.138 for the first, 0.0087 for the second.

Compared with “HMHHIDTAWFRGKMREHRLTQEAVGQAIGLERSMVSKIIKGTVSFNARKASAWAQLLRVSESEILERVGI”, “HMHHIDYKQLRRINPVAARRAVLDYLESTGGNITKTAQVFSINRSVVYDILKKQASGDLSDRLRIP” is higher in “soluble fraction (log2)” value: -0.379 for the first, 0.249 for the second.

First: HMHIDQVIRERRLALGLTQEELANKIGVSAPAVSKWEKRVSYPDITLLPALARILGTDVNTLLTFS
Second: HMHIVQEGDSLYGIARQYRITVEELRSLNALETADVIVPYQKLYV
The “soluble fraction (log2)” value of the first is higher: -0.309 for the first, -1.14 for the second.

Compared with “HMHKPLRILVYEELRMLIMTGQIKPGTRMMEIDLAESMGVSRTPVREAIRQLEKDNLVTIEPRRGAYVSD”, “HMHKYQVGETVYYTSPTFGRAAATGSYIVVKLLPSEGDDYQYRIKSSGEAFERVAKESQLDR” is higher in “soluble fraction (log2)” value: -0.761 for the first, 0.11 for the second.

First: HMHLIPRESTYEIDGRRFVVDSVNLDFGKVSLQDITFRNATGFPIFRSESIEFMRRLVEISEAQRIAEL
Second: HMHLPDNAVSIISELKMTPEEVLELIGKLPHDFLFLPYSQRKKIIVDLIPNKDYKLLMSLIKKFML
The “soluble fraction (log2)” value of the first is higher: -0.114 for the first, -0.536 for the second.

Compared with “HMHLTRYQYKVETEQEAVGLKELSSVHDLQIKENEATFQADSDAIDEILKTLLLYGVKKLEATPPTLED”, “HMHMSLTEKYKELTDLAVSAGVQNLNVREQDGVLYVDGDASGAVKQQLWDTYGKLDPDYTSGDLVLNI” is higher in “soluble fraction (log2)” value: -1.05 for the first, -0.696 for the second.

Going from “HMHNSPSPVATTILRFLQPVRAFVGDTEDMRTFGPFLREDVAMVPASQAKNLIRSGHAVEINP” to “HMHNSQTIIDNIKRIANEQNISLSKLAVISGLGKNTITSMTAKTNIKIETLTAIAKSLNVSIHDLTGE”, the “soluble fraction (log2)” value rises from -0.173 to 0.0739.

First: HMHPDHRTATVPDAAAGRRFDAVLAELFPQFSRSKLTTWIKSGEVLLNGEVPRPRDAVVGGETVSLNVVL
Second: HMHPMVEAYLADLDRALSGSDPREHAETMSAVREHLADAIAPDATAEQVRHALDELGPVEAIAAG
The “soluble fraction (log2)” value of the first is higher: ≥ 0.43 for the first, -0.239 for the second.

“HMHPQISVEGVLPLKEAVEFVEREIISHAYSRYRATREVARHLGIDPSTVLRKAAKYGITVEPGKN” and “HMHPRDREENKYLLLRGERIYEESIGEKRLYVEAALHKYEKALSSYDTGLIDEAKEEFKKFLEEIEEA” are within 0.2 log units of each other in “soluble fraction (log2)” value: -0.372 for the first, -0.438 for the second.

First: HMHPVEPDDPDQHILFQHLRGQDQVHIDALIRLSGWTADKVSSTLLFMELQGLVKQLPGMYYALE
Second: HMHQAADFAGFITFNKDGVEQFSFGKYKNQTVVSVLEKDPGYYSWIQNADFPLYTKKILTAIRLAM
The “soluble fraction (log2)” value of the first is lower: -1.07 for the first, -0.0054 for the second.

Going from “HMHQALLEQSAEHAQQVKAYELLLTAERALDEENTEAFLSAMKSLKPLAENLDAKGKALYQELLPFVTEA” to “HMHQAVTVTKPARLFTGPDGKGVVRSLDVGMMLYPTGEKQGMMWEVEDELGNKGWVSSTLLELS”, the “soluble fraction (log2)” value rises from -0.425 to 0.197.

Compared with “HMHSEEAALLHRYIDSLEEPQHTVVVMRDIGGYSFEEIASVVQLKEAHIWMILSRARRKLRELYIKTMDHH”, “HMHSFFGDNIKKLRTAKKMSQEQLADIFGITKAGISYWETGRSEPNFATVQKLADFFGVTTSDLLGEA” is higher in “soluble fraction (log2)” value: -0.101 for the first, 0.187 for the second.

Compared with “HMHSFGLHVRNLRKKSNLTLSQLSNASGLSLSAISKIENNQISPSFINLIRLAEGLKMHIADLVTVK”, “HMHSGFHSAILDVDRAVKEGKTLYEALNKYPYIFDETFRSLVRAGEASGELPSILSKLALYLEEQSK” is lower in “soluble fraction (log2)” value: -0.254 for the first, -1.04 for the second.

Going from “HMHSLLDDIPNVGEKRKRILLTHFQSLEEIKAATVEELERLPQINRKAAESIYTFFHSQPIR” to “HMHSRLEDIPGIGPRRRAMLLRHFGGLAELKAAGVEEIARVEGINMALAQRLWRALHGVPDPT”, the “soluble fraction (log2)” value rises from 0.139 to 0.343.

In the case of “HMHSVIALTIPADYAGLRLDQALAKLLPNWSRSRLQTWIAENRVILDGQITTIKQKVWGNELIQISPQD”, the “soluble fraction (log2)” value is reported as -0.252.

Source: the domain aggregation screens of Martell et al. (2025)
